Experimental data as given in the supplement of paper PMC10724198.
± gives the standard deviation of the averaged measurements.

Tested on: Saccharomyces cerevisiae
Assay: protein stability index of tFT-peptide fusion (C-terminal peptide) (PSI (0-1 scale)); higher = more stable (slower turnover)
Settings: genetic background: wild type; temperature: 30 C
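Further: PSI is a weighted mean of sequencing reads over stability bins, variants kept only with over 10 reads, mCherry proximal and sfGFP distal, peptide attached via GGGS linker.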

Sequence | protein stability index
VGGRVESLGVGD | 0.584 ± 0.017
LSPFPSCLPPSV | 0.702 ± 0.045
PNYQRRTKTNSP | 0.703 ± 0.04
FLISFCFVGLVL | 0.55 ± 0.014
AARRRLFSPCSP | 0.626 ± 0.1
SPPPRPLKLFPP | 0.599 ± 0.025
SSFLAPFRFPLL | 0.675 ± 0.093
SPPLPAPPPPIP | 0.60339 ± 3.2e-05
PPLPYPCPPVFV | 0.581 ± 0.012
RSPYSSLHNPLC | 0.706 ± 0.016
DSSPSPYPRPPP | 0.729 ± 0.054
PLYSKHPTRFFP | 0.714 ± 0.011
LYKEQRNNCGKI | 0.662 ± 0.021
EGDRLVKEVGEE | 0.654 ± 0.12
VSSPRLSPRLLY | 0.775 ± 0.084
WGRFGYGPAVVG | 0.735 ± 0.063
LPRAGLVLSPLH | 0.661 ± 0.051
RIPLYAFLPPID | 0.745 ± 0.066
RKKINKRLCLGN | 0.692 ± 0.033
HPFSLGSLVASW | 0.6412 ± 0.0027
RVPGGLPCRPSL | 0.775 ± 0.041
SLVCGFAVGGFW | 0.659 ± 0.044
PPPPPPPSSPPP | 0.732 ± 0.012
RSGLARPSPLTR | 0.67445 ± 0.00024
SPPPSVCPRFPI | 0.761 ± 0.057
PVSTINLNIQST | 0.836 ± 0.087

Sequence | protein stability index
SANSGVRHMHFW | 0.729 ± 0.058
NNKRNGRIKRKI | 0.738 ± 0.02
GAGWGWGRKGSR | 0.751 ± 0.089
TPTPPRPPFRSP | 0.709 ± 0.035
GWMLGAVRRGVI | 0.694 ± 0.032
WAGGANGEWGEW | 0.8097 ± 0.0021
PPPPPSSRPLSN | 0.627 ± 0.079
PSSPPLPLPALP | 0.723 ± 0.04
VPVISYVQTSIA | 0.558 ± 0.033
SPRLQAFPGSRA | 0.713 ± 0.032
RARAIGVGAGRG | 0.691 ± 0.019
LNSRQATLRPQT | 0.716 ± 0.021
PLPPRPHPPPPY | 0.695 ± 0.037
KSKTENKEKATK | 0.716 ± 0.1
RGGGAARGGGVG | 0.658 ± 0.009
LHSFLLSVGRGF | 0.681 ± 0.015
PFCCALPSPPSP | 0.6145 ± 0.0055
PTFVQGVVLGRG | 0.702 ± 0.086
SPPLQFLPYPFF | 0.685 ± 0.09
VSGLDSLHPSSN | 0.717 ± 0.034
APLPRRQFPLSP | 0.687 ± 0.011
SASPLRPPFLLL | 0.635 ± 0.09
GCPRGGVGSRGV | 0.659 ± 0.098
LCLFPSSFRLPP | 0.6489 ± 0.0051
TGRQQTCRIIIE | 0.6873 ± 0.00092
PPLPFPSLPTPP | 0.696 ± 0.042

Sequence | protein stability index
NRKKIKSIDVRK | 0.67 ± 0.07
VRRWCQFLGCCG | 0.682 ± 0.0081
PRHCYIPLPLLP | 0.661 ± 0.021
HPPSLPPLPPPL | 0.727 ± 0.054
KIIQDCSSLSKK | 0.683 ± 0.033
IMKKKKNKARDI | 0.75 ± 0.055
LSPCPPLRPLLS | 0.676 ± 0.081
PPSRLLFPSPPA | 0.683 ± 0.055
CLSPSSHLPSVT | 0.685 ± 0.021
PSPYFHLFGTQS | 0.77 ± 0.027
MYPFKYGFASWV | 0.583 ± 0.016
DSWMKRPNKGQE | 0.698 ± 0.058
PEGQRNRDAQSA | 0.7125 ± 0.0026
FLASPTPSHPRL | 0.787 ± 0.091
ARLGSVFLDPSG | 0.64833 ± 0.0003
SSVFPSSPAFLP | 0.691 ± 0.0099
SPLPPSPSPPTP | 0.725 ± 0.22
WTCMNRRMREED | 0.739 ± 0.072
SSDNKGLFDTRI | 0.728 ± 0.024
ARPSPPAILVPS | 0.586 ± 0.017
PRPPPSPPPILP | 0.676 ± 0.0072
LRQQTRGTIIEC | 0.703 ± 0.029
TYRPEMYSRVLT | 0.738 ± 0.011
SCHVRPPVPRPS | 0.663 ± 0.018
ASARLRPDCPYL | 0.645 ± 0.074
VSSVGILPFRFN | 0.72 ± 0.077

Sequence | protein stability index
SLRLPPPRRLPV | 0.658 ± 0.12
YLCEATFLLTWL | 0.618 ± 0.024
GCGAVEGFGVGW | 0.625 ± 0.03
VLSGAPGLIVYA | 0.602 ± 0.043
PLHLLPPPSSYP | 0.759 ± 0.033
RTRKARTHGRAQ | 0.679 ± 0.0092
YCHTSISPNSHL | 0.787 ± 0.096
SFSPNRAVSFST | 0.727 ± 0.082
AGAICWFRHILI | 0.67 ± 0.14
LSDFSLPTFLLL | 0.72 ± 0.065
LTPRPLPRLSPP | 0.705 ± 0.028
MLGHKIILHTYI | 0.54735 ± 0.00019
ELLSCGCCMVQS | 0.5622 ± 0.0025
WQGARLSSREGH | 0.694 ± 0.038
FLVFFRRPSRFF | 0.5856 ± 0.0058
PSQPYPSSQYIL | 0.73 ± 0.047
YPTTSWNPARSV | 0.692 ± 0.12
PLLPLLPSPASP | 0.674 ± 0.0098
RVQMTTHGCLIS | 0.766 ± 0.15
RFGGGPCRSVGC | 0.7331 ± 0.0059
AAKGSVRLFHVF | 0.561 ± 0.017
RTTAGINAFPGV | 0.6184 ± 0.0051
KKEKKQRKKING | 0.672 ± 0.075
SHTLIRRGTHFP | 0.683 ± 0.0094
GGKNVKCLDRGL | 0.693 ± 0.014
KKKKKINRKKKK | 0.705 ± 0.14

Sequence | protein stability index
RAWHFWVCGWRV | 0.607 ± 0.041
RRKGRLTAGWGR | 0.713 ± 0.025
IVTGMGVVHIWR | 0.698 ± 0.04
GWWGGCRSGVPE | 0.672 ± 0.069
QRFVKIRGLEKI | 0.693 ± 0.026
SGWVVECPRECW | 0.719 ± 0.024
PRGILLATPEGH | 0.684 ± 0.021
FKVILGEFPVAW | 0.674 ± 0.0086
EFKLINLETQRC | 0.706 ± 0.017
SSMCPDGGYQWV | 0.686 ± 0.0074
LTFSRFIENHYL | 0.662 ± 0.015
QKKQKIKYRSKN | 0.714 ± 0.053
SLRSPPPPPGIL | 0.756 ± 0.046
SPFLPLHRPRML | 0.653 ± 0.018
ATHISCRRNRLY | 0.57 ± 0.039
PPPPPLPPPPPP | 0.593 ± 0.021
AGPDGDWREPRP | 0.57 ± 0.069
HGGEPHPSFGFS | 0.697 ± 0.062
SGVTISYQEGLR | 0.677 ± 0.0091
EGTPLTIQRIGE | 0.666 ± 0.094
ASLAPTLPPPPQ | 0.677 ± 0.021
SPSGLPPPLTYP | 0.667 ± 0.034
RVRLSLDSPLGL | 0.684 ± 0.044
HRLQGQGAWYVT | 0.643 ± 0.061
GARTPVPRHRVH | 0.6396 ± 0.0011
GRIFAGCGGGGV | 0.705 ± 0.06

Sequence | protein stability index
FCSMLPSHLPEA | 0.6972 ± 0.0027
PPFPPPCFPPPL | 0.72 ± 0.0084
YVCCMEGFLKPL | 0.619 ± 0.043
GKEEGRETGREG | 0.741 ± 0.038
ARPPLARITRPS | 0.686 ± 0.015
PPARATPHDRCP | 0.724 ± 0.037
PPSHGRSSQSPR | 0.731 ± 0.1
VNAVLFWPRQLS | 0.619 ± 0.013
TRVGNMVARRGS | 0.687 ± 0.048
LFLFPPVLTFPL | 0.625 ± 0.035
TGGKGNKNKIKE | 0.692 ± 0.031
ERRKSKRKNENE | 0.674 ± 0.0084
SPPHPAALPSSP | 0.7005 ± 0.0032
KNKQQKKNKQKR | 0.643 ± 0.045
CGVFAGRVGVRV | 0.6003 ± 0.0017
VGGGGGAEGAGW | 0.739 ± 0.12
PPSAPPLPPLPL | 0.69 ± 0.014
CVPFFSSSSPLI | 0.812 ± 0.037
RQESYYLYHTAR | 0.717 ± 0.032
QCIQQNVSSSRA | 0.646 ± 0.014
SNRASVCKSGKR | 0.6768 ± 0.0017
ARKGVDFSRVIG | 0.6472 ± 0.0059
VAGKVWREAEPG | 0.656 ± 0.029
IPLSFDRLLLID | 0.63 ± 0.015
SPASPPLPAPPP | 0.68 ± 0.032
ANYGSCSLGYVL | 0.74 ± 0.062

Sequence | protein stability index
KGKRMSRLYSCG | 0.667 ± 0.012
CTHCAGVLLHTL | 0.636 ± 0.044
QKNKKKKQKKEK | 0.717 ± 0.05
RFGRGAGWGLGG | 0.66 ± 0.0092
PVPIPCPIPPPT | 0.703 ± 0.0062
LRRAFPSSTPLK | 0.698 ± 0.088
TSPTKSPTTTNN | 0.709 ± 0.039
PLAPPLPPPGPL | 0.74 ± 0.022
RLLPLPRRTPPL | 0.852 ± 0.11
PFHCLPRPPCYW | 0.708 ± 0.14
AFSRCITVRVVH | 0.498 ± 0.032
GSYIPSPKKNKC | 0.7086 ± 0.0029
QNKTKDQKQRRQ | 0.697 ± 0.028
LLRLDGGAGRSV | 0.627 ± 0.079
FALSSSLIRAFL | 0.726 ± 0.00088
PRPPRPPRPPLP | 0.66 ± 0.016
WLLGLCLFGFHR | 0.577 ± 0.013
VYFFSSIFRCFV | 0.544 ± 0.048
GWVRCGGGAGVG | 0.622 ± 0.056
IVFRLGRFCGRV | 0.709 ± 0.018
GGREDGKRGRQK | 0.684 ± 0.055
PTPPRPGPIITF | 0.699 ± 0.031
PPPAPLRSLSTP | 0.701 ± 0.024
SHTVVFRVCTGS | 0.631 ± 0.087
MGAGGGLCGMWA | 0.705 ± 0.054
NKPPGVGHGGVT | 0.672 ± 0.025

Sequence | protein stability index
AYTWVMTGAWLL | 0.586 ± 0.015
VLWIVDLFACEG | 0.585 ± 0.0037
HHCGGRVLGAGG | 0.7073 ± 0.0056
LFYRTLPLPWPA | 0.742 ± 0.02
PRSVPLCALLSL | 0.654 ± 0.024
CVLVVGGPAGGG | 0.575 ± 0.063
APPPPVAEAARG | 0.667 ± 0.032
FSGFGERFMISS | 0.6917 ± 0.0033
GEVMLRYQRISF | 0.713 ± 0.018
LGNMRTVEGWGG | 0.684 ± 0.051
WGPCCSTLLFFV | 0.423 ± 0.12
PPPSLSPAPAPP | 0.736 ± 0.027
ADDDTGYPPTRT | 0.669 ± 0.061
RLDVGAGGCLGG | 0.716 ± 0.021
AGGGAVWQGQQD | 0.725 ± 0.024
TRGGTVKDRQQR | 0.702 ± 0.037
AAMQCSRASTSS | 0.634 ± 0.077
RDCPVTPGTLFS | 0.744 ± 0.084
RVWSMYCSEANG | 0.666 ± 0.017
PPPPFAAALSTP | 0.69 ± 0.039
